From US20230279079A1 (CHANG GUNG MEMORIAL HOSPITAL LINKOU, published 2023)
Where a chain is given by its changes, count along the chain named.

B1: FM 7B (antibody, V domains shown)
VH: EVQLVQSGAEVKKPGASVKVSCKASGYTFTSYAMHWVRQAPGQRLEWMGWINTGNGNTKYSQKFQGRVTITRDTSASTAYMELSSLRSEDTAVYYCARDPTYCSSTSCYPFSWFDPWGQGTLVTVSS
VL: NFMLTQPPSVSVAPGQTARITCGGNNIGSKSVHWYQQKPGQAPVLVVYDDSDRPSGIPERFSGSNSGNTATLTISRVEAGDEADYYCQVWDSTGDHSWVFGGGTKLTVL
B2: EZ 7A (antibody, V domains shown)
VH: EVQLVESGAEVKKPGESLKISCKGSGYSFTSYWIGWVRQMPGKGLEWMGIIYPGDSDTRYSPSFQGQVTISADKSISTAYLQWSSLKASDTAMYYCARGWVYRGFPYYGMDVWGQGTMVTVSS
VL: QSALTQPRSVSGSPGQSVTISCTGTSSDVGGYNYVSWYQQHPGKAPKLMIYDVSKRPSGVPDRFSGSKSGNTASLTISGLQAEDEADYYCCSYAGSYTLVFGGGTKLTVL
B3: FI 4A (antibody, V domains shown)
VH: EVQLVESGGGLVKPGGSLRLSCAASGFTFSRFSMNWVRQAPGKGLEWVSSISSSGSYIYFADSVKGRFTISRDNAKNSLYLQMNSLRAEDTAIYYCATYLFGDSHTYWGQGTLVTVSS
VL: QSVLTQPHSVSESPGKTVTISCTGSSGSIASNYVQWYQQRPGSAPTTVIYEDNQRPSGVPDRFSGSIDSSSNSASLTISGLKTEDEADYYCQSYDSSNLHWVFGGGTKLTVL
B4: FJ 10B (antibody, V domains shown)
VH: QVQLVQSGAEVKKPGESLRISCKGSGYSFTSYWISWVRQMPGKGLEWMGRIDPSDSYTNYSPSFQGHVTISADKSISTAYLQWSSLKASDTAMYYCARLDPRYGPDYYGMDVWGQGTTVTVSS
VL: AIRMTQSPSSLSASVGDRVTITCRASQSISSYLNWYQQKPGKAPKLLIHAASSLQSGVPSRFSGSGSGTDFTLTMSSLQPEDFATYYCQQSYSTPLTFGGGTKVEIR
B5: FN 12A (antibody, V domains shown)
VH: QVQLVQSGAEVKKPGSSVKVSCKASGGTFSSYAISWVRQAPGQGLEWMGRIIPILGIANYAQKFQGRVTITADKSTSTAYMELSSLRSEDTAVYYCARSGCSSTSCPSNLYYYYYGMDVWGQGTTVTVSS
VL: QSVLTQPPSVSAAPGQKVTISCSGSSSNIGNNYVSWYQQLPGTAPKLLIYDNNKRPSGIPDRFSGSKSGTSATLGITGLQTGDEADYYCGTWDSSLSALVFGGGTKLTVL
B6: EW 1A (antibody, V domains shown)
VH: EVQLVESGGGVVQPGSSLRLSCETSGFTFSGHAMHWVRQAPGKGLEWLAQIWFDGSEKYYADSVKGRFTISRDNSKKILYMQMNSLRVQDTAVYYCARDGQHLAPFAMDVWGQGTMVTVSS
VL: QSVLTQPASVSGSPGQSITISCTGTSSDVGASNRVSWYQHSPGEAPKLIIYQVTVRPSGVSDRFSGSKSGNTASLTISGLRTEDEAEYYCNSFVSGDSWVFGGGTKVTVL
B7: EW 5A (antibody, V domains shown)
VH: EVQLVESGGGLVQPGGSLRLSCSVSGFPFGTYAMHWVRQAPGKGLDYVSAINNDGSITYYADSVRGRFTVSRDNSENTLYLRLSGLRPDDTAIYYCVKDRGSVIRDFDVWGRGTLVTVSS
VL: QTVVTQEPSLTVSPGGTVTLTCASSTGTVTSDYYPNWFQQKPGQAPRPLIFGTAYRHSWTPARFSGSLLGGKAALTVSDVQPEDEADYYCLLYCGGGQLFGGGTKLTVL
B8: EW 10C (antibody, V domains shown)
VH: EVQLVESGGGLVQPGGSLRLSCAASGFTFNKYKMTWVRQAPGKGLEWVANIKEDGSEKNYVDSVKGRFTISRDNARNSVYMHLNNLRVEDTAVYYCARGRTLGDWGQGTTVTVSS
VL: AIRMTQSPLSLPVTLGQPASISCRSSQSLVHSDGNTYLNWFQQRPGQSPRRLIYKVSNRDSGAPDRFSGSGSGTDFTLKISRVEAEDVGVYYCMQGTHWPPITFGPGTKVDIK
B9: EZ 9B (antibody, V domains shown)
VH: not shown
VL: SYELTQPPSVSVAPGQTARITCGGNNIGSKSVHWYQQKPGQAPVLVVYDDSDRPSGIPERFSGSNSGNTATLTISRVEAGDEADYYCQVWDSSSDHPSWVFGGGTKLTVL
B10: EZ 8C (antibody, V domains shown)
VH: EVQLVESGGGLVKPGGSLRLSCAASGFTFSSYTMNWVRQAPGKGLEWVSSFIANSDYKFYADSVKGRFTISRDNAKSSLYLQMNSLRAEDTAVYYCARELTSYGSHDAFDIWGQGTMVTVSS
VL: QSALTQPASVSGSPGQSITISCTGTSSDVGGYNYVSWYQQHPGKAPKLLIYEVTNRPSGVSDRFSGSKSANVASLTISGLQAEDEADYYCSSYTTTDSVVFGGGTKLTVL
B11: FD 4C (antibody, V domains shown)
VH: EVQLVESGPGLVKPSQTLSLTCTVSGGSISSGGYYWSWIRQHPGKGLEWIGYIYYSGSTYYNPSLKSRVTISVDTSKNQFSLKLSSVTAADTAVYYCARVRSSSSWYFDYWGQGTLVTVSS
VL: QSVLTQPASVSGSPGQSITISCTGTSSDVGGYNYVSWYQQHPGKAPKLMIYDVSKRPSGVSNRFSGSKSGNTASLTISGLQAEDEADYYCSSYTSKWVFGGGTKLTVL
B12: EW 9A (antibody, V domains shown)
VH: EVQLLESGGGVVQPGRSLRLSCAASGFTFSSYGMHWVRQAPGKGLEWVAVIWYDGSNKYYADSVKGRFTISRDNSKNTLYLQMNSLRAEDTAVYYCAKDMWALYDILTGYYTPYYYYGMDVWGQGTTVTVSS
VL: SYELTQPPSVSVSPGQTARITCSADALPKQYAYWYQQKPGQAPVLVIYKDSERPSGIPERFSGSSSGTTVTLTISGVQAEDEADYYCQSADSSGTYWVFGGGTKLTVL
B13: FD 5B (antibody, V domains shown)
VH: not shown
VL: QSVLTQPPSASGSPGQSVTISCTGTSSDAGGYNYVSWYQQHPGKAPKLMIYEVSKRPSGVPDRFSGSKSGNTASLTVSGLQAEDEADYYCSSYAGSNNPFVFGTGTKVTVL
B14: EY 12A (antibody, V domains shown)
VH: EVQLVESGPGLVKPSQTLSLTCAVSGGSISSGGYYWSWIRQPPGKGLELIGYTDYTGKTLYNPSLKSRLTISVDTSKNQFSLKLRSVTAADTAVYYCARGMTQDDILTGFNRPHWYFDLWGRGSLVTVSS
VL: QSVLTQPPSVSGAPGQRVTISCTGSSSNIGAGYDVHWYQQLPGTAPKVVIYRNMNRPSGVPDRFSGSKSGTSASLAITGLQAEDEADYYCQSFDSSLSDFVVFGGGTKLTVL
B15: EZ 9A (antibody, V domains shown)
VH: EVQLVESGGGLVQPGESLRVSCAASGFTFSNYWMHWVRQVPGKGPVWVSIINTDGSITRYVDSVRGRFTISRDNAKNTVHLQMNSLTAEDTAIYYCARDVNRYPDYWGQGTLVTVSS
VL: QSALTQPASVSGSPGQSITISCTGTYSDVGYYNYVSWYQQQPGKAPKVIIHGDINRPFGVSNRFSGSKSGNTASLTISGLQAEDEADYFCCSYVNNGAWVFGGGTKLTVL
B16: EY 12B (antibody, V domains shown)
VH: EVQLVESGGDLVQPGRSLRLSCAASGFTFDYFAMHWVRQVPGKGLEWVSGIRWNSETIGYADSVKGRFTISRDNAKKSLYLEMNSLRSEDTAFYYCAKGRSGYGHTAFDVWGQGTMVTVSS
VL: QSALTQPPSVSGAPGQRVTISCTGSSSNIGANYDVHWYQRLPGTAPKLLIYDNNNRPSGVPDRFSGSKSGTSASLAIAGLQAEDEADYYCQSYDSSLSASVFGGGTKLTVL
B17: EY 9C (antibody, V domains shown)
VH: EVQLVESGGGLVKPGGSLRLSCAASEFTFSSYTLNWVRQAPGKGLEWVSSISTSSAYIYYADSVKGRFTISRDNAKKSLSLQMNSLTAEDTAVYYCATWGGAPFDYWGQGTMVTVS
VL: QSVLTQPASVSGSPGRSITISCTETSSDVGTYNLVSWYQQHPGKAPKLMIFDDNKRPSGVSNRFSGSKSGNTASLTISGLQAEDEADYYCCSYAGGRTFNVLFGGGTKLTVL
B18: EZ 11A (antibody, V domains shown)
VH: EVQLVESGGGLVQPGGSLRLSCAASGFTFSSYWMSWVRQAPGKGLEWVANIKQDGSEKYYVDSVKGRFTISRDNAKNSLYLQMNSLRAEDTAVYYCARDDYSGSYYWEFDYWGQGTLVTVSS
VL: QPVLTQSPSASASLGASVKLTCTLSSGHSSYAIAWHQQQPEKGPRYLMKLNSDGSHSKGDGIPDRFSGSSSGAERYLTISSLQSEDEADYYCQTWGTGIWVFGGGTKLTVL
B19: EZ 11C (antibody, V domains shown)
VH: EVQLVESGAEVKKPGASVKVSCKVSGYTLTELSMHWVRQAPGKGLEWMGGFDPEDGETIYAQKFQGRVTMTEDTSTDTAYMELSSLRSEDTAVYYCATTTVTTPTANWFDPWGQGTLVTVSS
VL: B5 VL with V3A, D51E, S97R, A98Q, L99V
B20: EZ 9C (antibody, V domains shown)
VH: EVQLVESGGGLVQPGGSLRLSCSASGFTLNGYAMHWVRQAPGKGLEYVSSLSNRGDNTRYAESVKGRFLISRDIAKDTLYLQMSSLRPEDTAVYYCGKGLLSASGGLPIDDWGQGTLVTVSS
VL: B5 VL with L40F, D86A, G90A, L99G, T105A

The binders below were run against T1, SARS-CoV-2 spike S2 subunit (SARS-CoV-2, UniProt P0DTC2 686-1213) (assay: ELISA).
T1 construct: domain: S2 subunit
B1: no binding. B2: no binding. B3: no binding. B4: no binding. B5: no binding.

The binders below were run against T2, SARS spike S1 subunit (severe acute respiratory syndrome …, UniProt P59594 14-667) (assay: ELISA).
T2 construct: domain: S1 subunit
B1: binds. B2: binds. B3: no binding. B4: binds. B5: binds.

These binders were tested against T3, Human coronavirus OC43 spike extracellular domain (human coronavirus OC43, UniProt P36334 14-1297) (assay: ELISA).
T3 construct: extracellular domain
B1: no binding. B3: no binding. B4: no binding. B5: binds.

These binders were tested against T4, MERS spike extracellular domain (Middle East respiratory syndrome …, UniProt K9N5Q8 18-1296) (assay: ELISA).
T4 construct: extracellular domain
B1: no binding. B2: binds. B3: no binding. B4: no binding. B5: binds.

Each binder was assayed against T5, SARS-CoV-2 nucleocapsid protein (SARS-CoV-2, UniProt P0DTC9 1-419) (assay: ELISA on recombinant protein).
T5 construct: also called N protein
B6: binds. B7: binds. B8: binds. B9: binds. B10: binds. B11: binds. B12: binds. B13: binds. B14: binds. B15: binds. B16: binds. B17: binds. B18: binds. B19: binds. B20: binds.
